Data from patent US20230183352A1.

Target: CD80-FC (UniProt P33681)
Assay: ELISA, CD80-FC coated 4 µg/ml, biotin-PDL1-FC titrated

Sequence of Biotin QP004.3 (biotin-PDL1-FC) (Q9NZQ7 19-238 limits assumed): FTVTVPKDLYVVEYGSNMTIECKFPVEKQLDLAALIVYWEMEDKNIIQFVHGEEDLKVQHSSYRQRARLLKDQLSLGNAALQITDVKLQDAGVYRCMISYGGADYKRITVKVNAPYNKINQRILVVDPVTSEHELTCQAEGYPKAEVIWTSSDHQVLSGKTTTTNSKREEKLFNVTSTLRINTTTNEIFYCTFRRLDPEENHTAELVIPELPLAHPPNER
Sequence of CD80-FC (P33681 35-242 limits assumed): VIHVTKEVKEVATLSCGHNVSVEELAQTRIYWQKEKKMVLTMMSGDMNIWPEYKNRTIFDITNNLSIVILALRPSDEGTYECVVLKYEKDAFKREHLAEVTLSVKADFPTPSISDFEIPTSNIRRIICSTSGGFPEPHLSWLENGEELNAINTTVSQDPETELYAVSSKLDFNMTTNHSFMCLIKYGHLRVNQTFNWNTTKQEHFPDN

Substance: Biotin QP004.3 (biotin-PDL1-FC) (from UniProt Q9NZQ7 19-238) (Fc fusion)
- ELISA reading at 0 µg/ml Biotin-QP004.3 (blank): 0.0484
- ELISA reading at 0.00064 µg/ml Biotin-QP004.3: 0.048
- ELISA reading at 0.0032 µg/ml Biotin-QP004.3: 0.0468
- ELISA reading at 0.016 µg/ml Biotin-QP004.3: 0.0668
- ELISA reading at 0.08 µg/ml Biotin-QP004.3: 0.179
- ELISA reading at 0.4 µg/ml Biotin-QP004.3: 0.591
- ELISA reading at 2 µg/ml Biotin-QP004.3: 1.87
- ELISA reading at 10 µg/ml Biotin-QP004.3: 3.19
